Data published in patent US12319941B2, “Thermophilic recombinant type II pullulanase and application thereof” (Jiangnan University, priority 2019, dated 2025).
Entries after “also recorded” stand apart in the source; their conditions may differ. Like-named read-outs stand apart in the source and are kept apart here.

How the values were obtained:
[1] = system: recombinant type II pullulanase Sumo-PulPy; assay: Effect of metal ions and chemical reagents on the enzyme activity of Sumo-PulPy; assay type: biochemical, Pyrococcus yayanosii CH1; settings: for Relative enzyme activity (%): pH 6.6; for effect on the enzyme activity of Sumo-PulPy (in words): reagent added to enzymatic reaction system
[2] = Analysis of degradation products of Amylose from potato (MALDI-TOF/TOF); assay type: biochemical; settings: 1% Amylose from potato, 95° C., 6 h
Procedure: (§1) The sample processing procedure was as follows: an appropriate amount of pure enzyme solution was mixed well with 1% pullulan and 1% Amylose from potato respectively, enzymatically hydrolyzed at 95° C. for 6 h, cooled to room temperature and then centrifuged at 12000 r/min for 20 min. And the supernatant was taken. The enzymatic hydrolysis products of pullulan and Amylose from potato were analyzed using high performance liquid chromatography (HPLC, conditions: Hpersil NH2 amino column (4.6×250 mm), column temperature 40° C., mobile phase (acetonitrile:water=67:33), flow rate 1.0 mL/min, injection volume 20 μL) and MALDI-TOF/TOF matrix-assisted laser […]/ionization tandem time-of-flight mass spectrometer respectively.

[3] = assay type: biochemical; settings: for optimum temperature: potassium phosphate buffer, 75-100° C.
Procedure: (§2) The determination of the activity of recombinant type II pullulanase Sumo-PulPy was adopted the 3,5-dinitrosalicylic acid (DNS) method. The specific steps were as follows: reacting 100 μL reaction system (10 μL potassium phosphate buffer with different pH with a final concentration of 100 mM, 50 μL pullulan with a final concentration of 3% and 40 μL enzyme solution) at a certain temperature for 15 min, adding 100 μL DNS reaction solution, boiling in a water bath for 6 min, immediately cooling to room temperature with running water, adding and diluting with distilled water, mixing well, and determining […]. One enzyme activity unit (U) was defined as the amount of enzyme required to release reducing sugar correspond to the reduction capacity of 1 μmol glucose per minute under assay conditions.
Determination of the optimum temperature of the enzyme: the enzymatic reaction was performed in a potassium phosphate buffer (pH 6.6) at 75-100° C.
Determination of the thermal stability of the enzyme: the enzyme solution with the same amount of enzyme was placed under the conditions of 80° C., 90° C., 95° C. and 100° C., respectively, and disposed for 2 h, 4 h, 6 h, 8 h and 10 h, respectively, and the enzymatic reaction was performed at pH 6.6 and 95° C. to determine the remaining enzyme activity of Sumo-PulPy.

[4] = Analysis of degradation products of pullulan (HPLC); assay type: biochemical; settings: 1% pullulan, 95° C., 6 h
Procedure: as §1

[5] = DNS method enzyme activity and kinetic parameters (Lineweaver-Burk) with pullulan as substrate; assay type: biochemical; settings: for Km / Vmax: pullulan 1.25-40 mg/mL, optimum conditions
Procedure: as §2
Using different concentrations of pullulan (1.25, 2.5, 5, 10, 20, and 40 mg/mL) as the substrate, the enzyme activity was determined under the optimum conditions, the corresponding reaction rate was calculated, and Km value and Vmax were obtained by Linewear Burk method using Michaelis-Menten Equation.

[6] = Optimum pH and pH stability of the enzyme; assay type: biochemical; settings: for optimum pH: 100 mM potassium phosphate buffer pH 5.8-8.0; for pH stability / pH tolerance: between pH 5.8 and 8.0
Procedure: as §2
Determination of the optimum pH: the purified Sumo-PulPy was subjected to enzymatic reaction in 100 mM potassium phosphate buffer (pH 5.8-8.0) at 95° C.
Determination of the pH stability of the enzyme: the enzyme solution was added into 100 mM potassium phosphate buffer (pH 5.8-8.0) and disposed at 4° C. for 4 h, and then the enzymatic reaction was performed at pH 6.6 and 95° C. to determine the remaining enzyme activity of Sumo-PulPy. […] Except for a 12% loss of enzyme activity after disposal at pH 5.8 for 4 h, the rest has almost no effect on the enzyme activity (FIG. 4).

[7] = reagent 2 mM, 100% = no reagent, 95° C.
[8] = reagent 1%, 100% = no reagent, 95° C.

Molecule: [Ca+2].[Cl-].[Cl-] [CaCl2]
- Relative enzyme activity (%) [1, 7]: 71.3 ± 3.5%

Molecule: [Cl-].[Cl-].[Co+2] [CoCl2]
- Relative enzyme activity (%) [1]: 150.0 ± 4.8%

Molecule: [Cl][Cu][Cl] [CuCl2]
- Relative enzyme activity (%) [1, 7]: 45.9 ± 3.5%

Molecule: O[C@@H](CS)[C@@H](O)CS [DTT]
- Relative enzyme activity (%) [1, 8]: 337.2 ± 4.7%

Molecule: O=S(=O)([O-])[O-].[Fe+2] [FeSO4]
- Relative enzyme activity (%) [1, 7]: 183.1 ± 4.0%

Molecule: [Cl-].[K+] [KCl]
- Relative enzyme activity (%) [1, 7]: 104.1 ± 3.0%
- effect on the enzyme activity of Sumo-PulPy (in words) [1]: weakly promote

Molecule: [Cl-].[Cl-].[Mg+2] [MgCl2]
- Relative enzyme activity (%) [1, 7]: 94.9 ± 3.4%

Molecule: [Cl][Mn][Cl] [MnCl2]
- Relative enzyme activity (%) [1, 7]: 91.2 ± 2.9%

Molecule: [Cl-].[Na+] [NaCl]
- Relative enzyme activity (%) [1]: 81.1 ± 4.2%

Molecule: O=S(=O)([O-])[O-].[Ni+2] [NiSO4]
- Relative enzyme activity (%) [1, 7]: 73.3 ± 3.3%

Molecule: CCCCCCCC/C=C\CCCCCCCC(=O)OCCOCC(OCCO)C1OCC(OCCO)C1OCCO (centres unmarked) [Tween-80]
- Relative enzyme activity (%) [1, 8]: 110.8 ± 2.9%
- effect on the enzyme activity of Sumo-PulPy (in words) [1]: weakly promote

Molecule: O=S(=O)([O-])[O-].[Zn+2] [ZnSO4]
- Relative enzyme activity (%) [1, 7]: 0%

Molecule: OCCS [β-mercaptoethanol]
- Relative enzyme activity (%) [1, 8]: 157.4 ± 3.0%

Molecule: Triton X-100
- Relative enzyme activity (%) [1, 8]: 111.1 ± 3.6%
- effect on the enzyme activity of Sumo-PulPy (in words) [1]: weakly promote

B1: Sumo-PulPy: thermophilic recombinant type II pullulanase from Pyrococcus yayanosii CH1 (SEQ ID NO:1) with His and Sumo tags, expressed in E. coli (protein)
chain: MGHHHHHHMSDSEVNQEAKPEVKPEVKPETHINLKVSDGSSEIFFKIKKTTPLRRLMEAFAKRQGKEMDSLRFLYDGIRIQADQTPEDLDMEDNDIIEAHREQIGGQRGSRRVLSLFVVFVVLGSLLALQPEVKAGEPKPLNVIIVWHQHQPYYYDPVQGIYTRPWVRLHAANNYWKMAYYLSKYPDVHATIDLSGSLIAQLADYMNGAKDIYQIITEKIAKGEPLTVEEKWLMLQAPGGFFDHTIPWNGEPVTDKNGNPIRDFWNRYTELKNKMLQAKAKYANLPLEEQKVAVTNEFTEQDYIDLAVLFNLAWIDYNYIMNTPELKALYEKVDEGGYTREDVRTVLKHQMWLLNHTFEEHEKINLLLGNGNVEVTVVPYAHPIGPILNDFGWEEDFDAHVKKAHELYKKYLGAGKVTPKGGWAAESALNDKTLEILAENGWQWVMTDQLVLQKLGIPYTVENYYKPWVAEFNGRKIYLFPRDHALSDRVGFTYSGMNQYQAVEDFINELLRIQKQNYDGSLVYVITLDGENPWEHYPYDGKLFLETLYKRLTELQRQGLIRTLTPSEYIKLYGDKANKLTPQMMERLDLTGDNVEALLKAQSLGELYDMIGVKEEMQWPESSWIDGTLSTWIGEPQENYGWYWLYLARKALMAQKDKMSQENWEKAYEYLLRAEASDWFWWYGSDQSSGQDYTFDRYFKTYLYEIYRLAGLEPPSYLYGNYFPDGEPYTIRALEGLGEGQVKEYSSMSPLAEGVSVYFDGEGVHFVVKGNLEKFEISIYEKGERVGNTFTLLQERPGELKYSLFPFSRDSVGLLITKHVVYRDGKAEIYAATDYENTEKVGEASVKQVDGGVEIVVPFDYIKTPEDFYFAVSTVKDGELEIITTPIELKLPMEVKGVPIVDVVDPEGDDYGPGTYTYPTDPVFVPHHLDLLRFRILEQTDAYVMEFYFKELGGNVWNAPNGFSLQIIEVYLDFREGGNTSAIKMFPDGPGANVNLDPEHPWDLALRIAGWDYGNLIVLPNGTVYQGELQISADPVNNKIIVKVPKKYIQIDEDYGLWGVVLVGSQDGYGPDKWRPVAVEAEQWRLGGADQQAVIDNLAPRVVDLLVPEGFKPTQEEQLSSYDLEKKILATVLMIPLIEGSGGEEPAETPRETAIPAESPTTTEAPTETQSTTTSQGPTETQTGGGICGPVALLGLVMTPLLLRRRR
modifications: His and Sumo tags; Protein translated from synthetic DNA
- hydrolysate of Amylose from potato [2]: mainly oligosaccharides such as pentasaccharides, hexasaccharides, heptasaccharides, and octasaccharides
- remaining enzyme activity after heat preservation at 95° C. for 10 h ([3]; 10 h): greater than 50%
- optimum temperature [3]: 95 °C
- pullulan hydrolysates [4]: most of the pullulan hydrolysates are maltotriose
- specific enzyme activity [5]: 5.37±0.20 U/mg
- specific enzyme activity ([5]; 95° C. and pH 6.6, no metal ions or chemical reagents added): 5.37±0.20 U/mg
- Km [5]: 8.78 ± 0.89 mg/mL
- Vmax [5]: 5.37±0.20 U/mg
- optimum pH [6]: 6.6
- loss of enzyme activity after disposal at pH 5.8 for 4 h ([6]; 4° C., 4 h, pH 5.8, then assay at pH 6.6 and 95° C.): 12%
- pH stability / pH tolerance [6]: better pH tolerance; also recorded: very stable

B2: Δ28N+Δ791C: combined truncation mutant of PulPy: first 28 N-terminal amino acids and amino acids after position 790 deleted (SEQ ID NO:3) (protein)
chain: MGHHHHHHMSDSEVNQEAKPEVKPEVKPETHINLKVSDGSSEIFFKIKKTTPLRRLMEAFAKRQGKEMDSLRFLYDGIRIQADQTPEDLDMEDNDIIEAHREQIGGQRGSPKPLNVIIVWHQHQPYYYDPVQGIYTRPWVRLHAANNYWKMAYYLSKYPDVHATIDLSGSLIAQLADYMNGAKDIYQIITEKIAKGEPLTVEEKWLMLQAPGGFFDHTIPWNGEPVTDKNGNPIRDFWNRYTELKNKMLQAKAKYANLPLEEQKVAVTNEFTEQDYIDLAVLFNLAWIDYNYIMNTPELKALYEKVDEGGYTREDVRTVLKHQMWLLNHTFEEHEKINLLLGNGNVEVTVVPYAHPIGPILNDFGWEEDFDAHVKKAHELYKKYLGAGKVTPKGGWAAESALNDKTLEILAENGWQWVMTDQLVLQKLGIPYTVENYYKPWVAEFNGRKIYLFPRDHALSDRVGFTYSGMNQYQAVEDFINELLRIQKQNYDGSLVYVITLDGENPWEHYPYDGKLFLETLYKRLTELQRQGLIRTLTPSEYIKLYGDKANKLTPQMMERLDLTGDNVEALLKAQSLGELYDMIGVKEEMQWPESSWIDGTLSTWIGEPQENYGWYWLYLARKALMAQKDKMSQENWEKAYEYLLRAEASDWFWWYGSDQSSGQDYTFDRYFKTYLYEIYRLAGLEPPSYLYGNYFPDGEPYTIRALEGLGEGQVKEYSSMSPLAEGVSVYFDGEGVHFVVKGNLEKFEISIYEKGERVGNTFTLLQERPGELKYSLFPFSRDSVGLLITKHVVYRDGKAEIYAATDYENTEKVGEASVKQVDGGVEIVVPFDYIKTPEDFYFAVSTVKDGELEIITTPIELKLPMEVKGVP
modifications: Protein translated from synthetic DNA
- improvement of optimum temperature compared with Sumo-PulPy [3]: 5 °C
- thermal stability at 100° C. compared with Sumo-PulPy [3]: slightly improves
- remaining enzyme activity after heat preservation at 100° C. for 2 h ([3]; 2 h): greater than 60%
- optimum temperature [3]: 100 °C
- specific enzyme activity [5]: 32.18±0.92 U/mg
- specific enzyme activity relative to Sumo-PulPy [5]: 5.99 times
- Km [5]: 6.63 ± 0.56 mg/mL
- Vmax [5]: 32.18±0.92 U/mg
- optimum pH [6]: 6.4
- pH stability / pH tolerance [6]: good pH tolerance
